test system: Escherichia coli TOP10; experiment: shrunken log2 fold change of peptide-encoding DNA abundance (4.5 h post-induction vs induction); higher = less antimicrobial activity (less host growth inhibition); conditions: time post-induction: 4.5 h; library: site-saturation at positions 5, 18, 19, 20
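Note: peptides expressed intracellularly from a pBAD plasmid library in pooled LB shake-flask culture, induced with 0.3% L-arabinose, DNA abundance read by NGS, three biological replicates, DESeq2 with apeglm shrinkage.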

| Sequence | shrunken log2 fold change |
| --- | --- |
| RRIRQRPPRLPRPRPRPVQRPRP | 0.862 |
| RRIRARPPRLPRPRPRPVARPRP | 0.647 |
| RRIRCRPPRLPRPRPRPFHKPRP | -0.0775 |
| RRIRYRPPRLPRPRPRPSLKPRP | -0.316 |
| RRIRIRPPRLPRPRPRPLIMPRP | -0.853 |
| RRIRPRPPRLPRPRPRPKCFPRP | 0.434 |
| RRIRDRPPRLPRPRPRPWCVPRP | 0.083 |
| RRIRVRPPRLPRPRPRPWAYPRP | -0.323 |
| RRIRRRPPRLPRPRPRPITLPRP | -0.0936 |
| RRIRKRPPRLPRPRPRPANFPRP | -0.0479 |
| RRIRERPPRLPRPRPRPPDQPRP | 0.155 |
| RRIRIRPPRLPRPRPRPCRHPRP | -0.159 |
| RRIRQRPPRLPRPRPRPMKYPRP | -0.498 |
| RRIRVRPPRLPRPRPRPNIQPRP | -0.121 |
| RRIRWRPPRLPRPRPRPQDLPRP | 0.107 |
| RRIRPRPPRLPRPRPRPTPQPRP | 0.497 |
| RRIRCRPPRLPRPRPRPRATPRP | 0.509 |
| RRIRQRPPRLPRPRPRPVSSPRP | -0.255 |
| RRIRFRPPRLPRPRPRPPESPRP | 1.13 |
| RRIRRRPPRLPRPRPRPLVAPRP | 0.755 |
| RRIRYRPPRLPRPRPRPYSKPRP | -0.124 |
| RRIRFRPPRLPRPRPRPQGQPRP | -0.103 |

| Sequence | shrunken log2 fold change |
| --- | --- |
| RRIRWRPPRLPRPRPRPVLVPRP | 0.298 |
| RRIRWRPPRLPRPRPRPIFDPRP | 0.273 |
| RRIRDRPPRLPRPRPRPQHPPRP | -0.00435 |
| RRIRRRPPRLPRPRPRPPGIPRP | 0.612 |
| RRIRTRPPRLPRPRPRPQAHPRP | -0.452 |
| RRIRERPPRLPRPRPRPQWMPRP | 0.0273 |
| RRIRCRPPRLPRPRPRPFPMPRP | -0.274 |
| RRIRLRPPRLPRPRPRPNIGPRP | -0.00419 |
| RRIRPRPPRLPRPRPRPFDKPRP | -0.0386 |
| RRIRPRPPRLPRPRPRPQIEPRP | -0.0699 |
| RRIRWRPPRLPRPRPRPHASPRP | 0.134 |
| RRIRNRPPRLPRPRPRPVAWPRP | -0.01 |
| RRIRHRPPRLPRPRPRPLLTPRP | -0.338 |
| RRIRMRPPRLPRPRPRPHFIPRP | 0.0859 |
| RRIRDRPPRLPRPRPRPNHMPRP | -0.776 |
| RRIRDRPPRLPRPRPRPCAFPRP | 0.822 |
| RRIRGRPPRLPRPRPRPINRPRP | -0.231 |
| RRIRSRPPRLPRPRPRPPTFPRP | -0.0599 |
| RRIRPRPPRLPRPRPRPWWFPRP | -0.133 |
| RRIRHRPPRLPRPRPRPKRMPRP | 0.101 |
| RRIRVRPPRLPRPRPRPIPEPRP | -0.0974 |
| RRIRNRPPRLPRPRPRPKKFPRP | -0.0756 |

| Sequence | shrunken log2 fold change |
| --- | --- |
| RRIRFRPPRLPRPRPRPNWSPRP | -0.0531 |
| RRIRQRPPRLPRPRPRPFWSPRP | -0.00402 |
| RRIRWRPPRLPRPRPRPMHDPRP | 0.229 |
| RRIRMRPPRLPRPRPRPTINPRP | -0.109 |
| RRIRTRPPRLPRPRPRPSPYPRP | -0.573 |
| RRIRNRPPRLPRPRPRPTTHPRP | 0.102 |
| RRIRERPPRLPRPRPRPNQVPRP | -0.0305 |
| RRIRSRPPRLPRPRPRPNIMPRP | -0.49 |
| RRIRNRPPRLPRPRPRPYDIPRP | -0.0698 |
| RRIRFRPPRLPRPRPRPKLAPRP | 0.559 |
| RRIRMRPPRLPRPRPRPHNRPRP | -0.172 |
| RRIRSRPPRLPRPRPRPVHDPRP | -0.0657 |
| RRIRQRPPRLPRPRPRPMSDPRP | -0.0194 |
| RRIRWRPPRLPRPRPRPGMYPRP | 0.0165 |
| RRIRWRPPRLPRPRPRPPDAPRP | 0.5 |
| RRIRRRPPRLPRPRPRPSEMPRP | 0.0772 |
| RRIRTRPPRLPRPRPRPNYSPRP | -0.382 |
| RRIRWRPPRLPRPRPRPMWCPRP | -0.166 |
| RRIRWRPPRLPRPRPRPMTLPRP | -0.0611 |
| RRIRKRPPRLPRPRPRPTIDPRP | 0.128 |
| RRIRSRPPRLPRPRPRPYNFPRP | -0.36 |
| RRIRQRPPRLPRPRPRPSMHPRP | -0.0647 |

| Sequence | shrunken log2 fold change |
| --- | --- |
| RRIRERPPRLPRPRPRPGQDPRP | -0.0237 |
| RRIRYRPPRLPRPRPRPMTDPRP | -0.0354 |
| RRIRYRPPRLPRPRPRPGVNPRP | -3.04 |
| RRIRERPPRLPRPRPRPHGFPRP | -0.0632 |
| RRIRIRPPRLPRPRPRPRKSPRP | -0.169 |
| RRIRIRPPRLPRPRPRPMIMPRP | -0.615 |
| RRIRIRPPRLPRPRPRPDHEPRP | 0.147 |
| RRIRRRPPRLPRPRPRPGWNPRP | 0.257 |
| RRIRLRPPRLPRPRPRPQNWPRP | 0.1 |
| RRIRFRPPRLPRPRPRPGVNPRP | 0.0431 |
| RRIRNRPPRLPRPRPRPRYCPRP | -0.0932 |
| RRIRKRPPRLPRPRPRPHWIPRP | -0.0313 |
| RRIRRRPPRLPRPRPRPQLYPRP | 0.101 |
| RRIRWRPPRLPRPRPRPEATPRP | 1.44 |
| RRIRPRPPRLPRPRPRPEAAPRP | 1.13 |
| RRIRMRPPRLPRPRPRPLFDPRP | 0.201 |
| RRIRARPPRLPRPRPRPMPVPRP | 0.0463 |
| RRIRDRPPRLPRPRPRPMSWPRP | 0.262 |
| RRIRKRPPRLPRPRPRPAKSPRP | 0.254 |
| RRIRGRPPRLPRPRPRPMLHPRP | 0.526 |
| RRIRMRPPRLPRPRPRPKPQPRP | 1.41 |
| RRIRERPPRLPRPRPRPDGYPRP | 0.0107 |

| Sequence | shrunken log2 fold change |
| --- | --- |
| RRIRIRPPRLPRPRPRPINGPRP | -0.383 |
| RRIRLRPPRLPRPRPRPPCQPRP | 0.062 |
| RRIRLRPPRLPRPRPRPAIFPRP | -0.391 |
| RRIRKRPPRLPRPRPRPFVRPRP | 0.00981 |
| RRIRDRPPRLPRPRPRPCCPPRP | -0.449 |
| RRIRQRPPRLPRPRPRPDVQPRP | -0.0191 |
| RRIRERPPRLPRPRPRPWRKPRP | -0.173 |
| RRIRFRPPRLPRPRPRPLGRPRP | 0.109 |
| RRIRLRPPRLPRPRPRPTCMPRP | -0.228 |
| RRIRFRPPRLPRPRPRPCNLPRP | -0.264 |
| RRIRKRPPRLPRPRPRPLTGPRP | -0.0975 |
| RRIRDRPPRLPRPRPRPWFPPRP | -0.234 |
| RRIRNRPPRLPRPRPRPPHAPRP | 0.22 |
| RRIRHRPPRLPRPRPRPPQIPRP | -0.0667 |
| RRIRLRPPRLPRPRPRPIIKPRP | -0.527 |
| RRIRYRPPRLPRPRPRPSMHPRP | -0.601 |
| RRIRPRPPRLPRPRPRPQFWPRP | 0.249 |
| RRIRNRPPRLPRPRPRPGCRPRP | 0.123 |
| RRIRDRPPRLPRPRPRPCTQPRP | 0.0408 |
| RRIRTRPPRLPRPRPRPPHAPRP | 0.312 |
| RRIRGRPPRLPRPRPRPNRYPRP | 0.0443 |

Reference: the supplement of paper PMC9112550, “Optimization of the antimicrobial peptide Bac7 by deep mutational scanning” (BMC Biology, 2022)
